In the RNAGym collection of RNA variant scans (doi:10.7554/elife.80360) one finds self-cleavage data, which are given here for 167 variants.

B1: HDV Ribozyme (parent)
chain: GGCCGGCAUGGUCCCAGCCUCCUCGCUGGCGCCGGCUGGGCAACAUUCCGAGGGGACCGUCCCCUCGGUAAUGGCGAAUGGGACCCA

The variants in the series derive from B1. The series can be described thus: self-cleavage, relative activity (ratio to wild type); higher = more cleavage; co-transcriptional.
With G67U C85U, the self-cleavage is 0.972.

As to C33U A71U, the self-cleavage is 0.65.

On to A16G G59C, for which the self-cleavage was 0.929.

With C33A G52C, the self-cleavage turned out to be 0.284.

Take A8U C15G: the self-cleavage worked out at 0.277.

In the case of G35U C64G, the self-cleavage was 0.403.

As to C44G G74A, the self-cleavage was 0.523.

Regarding C66G A78U, the self-cleavage worked out at 0.48.

For U69C G80U, the self-cleavage stood at 0.0898.

For G5C A71C, the self-cleavage amounted to 0.0639.

As to G54U C57G, the self-cleavage turned out to be 1.1.

On to C63U A71C, for which the self-cleavage was 1.15.

In the case of G28U G50C, the self-cleavage is 0.212.

As for C19G C24U, the self-cleavage stood at 0.0339.

As to C18G G67U, the self-cleavage came to 0.101.

As for G11U G29U, the self-cleavage was 0.0536.

For the variant C26U C36G, the self-cleavage stood at 0.162.

Turning to C19A C61G, the self-cleavage came to 0.095.

For the variant C7G G76A, the self-cleavage was 0.172.

Regarding G29C G81A, the self-cleavage was found to be 0.0639.

Consider C36A G73U, for which the self-cleavage stood at 0.0583.

Take C21A U79A: the self-cleavage came out at 0.125.

As for G55A C57A, the self-cleavage amounted to 0.927.

G10C G40C: the self-cleavage turned out to be 0.264.

As to G11C C62A, the self-cleavage worked out at 0.475.

For the variant C32U A71C, the self-cleavage was 0.665.

On to C4U G5A, for which the self-cleavage is 0.185.

Take G67C C85G: the self-cleavage is 0.96.

Turning to G76A A83C, the self-cleavage is 0.539.

As for U12A G82C, the self-cleavage was found to be 0.302.

For the variant A78C G82U, the self-cleavage turned out to be 0.212.

Consider G2U G67C, for which the self-cleavage stood at 0.0678.

U23C C36G: the self-cleavage was 0.125.

For the variant C61U G68U, the self-cleavage worked out at 0.95.

G17C C62A: the self-cleavage amounted to 0.252.

As to G5A C26A, the self-cleavage stood at 0.522.

On to U9A A16G, for which the self-cleavage came to 1.37.

With U9G C32A, the self-cleavage is 0.277.

On to C7U C58G, for which the self-cleavage was 1.02.

Turning to C33A C84A, the self-cleavage was 0.0811.

In the case of G34C G82U, the self-cleavage was 0.0652.

In the case of C21A G53C, the self-cleavage was determined as 0.0639.

In the case of A16C C57G, the self-cleavage worked out at 0.646.

Turning to G38U U79G, the self-cleavage came out at 0.208.

For the variant A45C A56U, the self-cleavage was found to be 0.629.

In the case of C4G G76A, the self-cleavage is 0.343.

Consider U37C A71G, for which the self-cleavage was 0.751.

Regarding C7A G54A, the self-cleavage was determined as 0.504.

As for C18U G55A, the self-cleavage was 0.919.

As for C48A G82A, the self-cleavage is 0.332.

C36U G80U: the self-cleavage is 0.224.

Turning to U9G A83U, the self-cleavage was 0.453.

Turning to G38C C85A, the self-cleavage was found to be 0.0997.

For G38C C85G, the self-cleavage is 0.237.

With A16C U20A, the self-cleavage came out at 0.

As to G17A U65C, the self-cleavage worked out at 0.671.

C64A G68C: the self-cleavage is 0.554.

Turning to U65A C75G, the self-cleavage stood at 0.19.

In the case of G50A C63G, the self-cleavage amounted to 0.0475.

For the variant C48A G55C, the self-cleavage was determined as 1.06.

For the variant G74A U79G, the self-cleavage turned out to be 0.356.

In the case of A16C A83C, the self-cleavage was determined as 0.227.

In the case of G17C C30U, the self-cleavage is 0.655.

As to G35U C36U, the self-cleavage worked out at 0.101.

As for U60C C61G, the self-cleavage was found to be 0.751.

In the case of U20C C85A, the self-cleavage was determined as 0.119.

With U12G A45C, the self-cleavage amounted to 0.399.

Turning to G38C A71C, the self-cleavage was 0.231.

For C26G A71G, the self-cleavage came out at 0.475.

For the variant G52C G59U, the self-cleavage was 0.962.

As for G53U A78C, the self-cleavage turned out to be 0.229.

As to G34C U72G, the self-cleavage is 0.222.

Take A56C U79A: the self-cleavage was 0.554.

With A51U C84U, the self-cleavage came out at 0.716.

Turning to G80A C86A, the self-cleavage amounted to 0.532.

In the case of C26G G38C, the self-cleavage came to 0.151.

Turning to C24U U46A, the self-cleavage was determined as 0.53.

For U27C C84A, the self-cleavage is 0.923.

In the case of C15U U60G, the self-cleavage was 0.554.

For G25U G81C, the self-cleavage is 0.0923.

On to C49G G59U, for which the self-cleavage is 0.889.

As for G55A U69C, the self-cleavage worked out at 0.918.

Take C61G G68A: the self-cleavage was 1.02.

For the variant C41A C75U, the self-cleavage amounted to 0.145.

With G10A A78U, the self-cleavage was determined as 0.0382.

C3G C44G: the self-cleavage turned out to be 0.0707.

As to G29U U46C, the self-cleavage was 0.

With G29U G40C, the self-cleavage was determined as 0.0583.

Consider C41U A71U, for which the self-cleavage was found to be 0.897.

Consider C66A A77G, for which the self-cleavage stood at 0.706.

For the variant C4U U47G, the self-cleavage is 0.88.

In the case of C24G G40A, the self-cleavage came to 0.112.

On to C13U A42G, for which the self-cleavage worked out at 0.0755.

Consider C13U A87U, for which the self-cleavage is 0.819.

With C7U G31A, the self-cleavage is 0.876.

G55A A70G: the self-cleavage came out at 0.89.

Turning to C49U G67A, the self-cleavage worked out at 0.891.

Consider G59C U72G, for which the self-cleavage came out at 0.675.

As for U37G U47C, the self-cleavage stood at 0.128.

C64A G81U: the self-cleavage amounted to 0.379.

In the case of G5A C13U, the self-cleavage stood at 0.107.

In the case of C49A U65A, the self-cleavage came to 0.751.

As to C44A A51C, the self-cleavage stood at 0.779.

For C15A U46A, the self-cleavage is 0.361.

As for A43U G52A, the self-cleavage was found to be 0.561.

Regarding U69A A70U, the self-cleavage turned out to be 0.95.

For C44U A45C, the self-cleavage came to 0.739.

As to C18A G34A, the self-cleavage stood at 0.0326.

Take G39C A83U: the self-cleavage came to 0.

In the case of G5A G29U, the self-cleavage stood at 0.0519.

Regarding G5A C84A, the self-cleavage was 0.172.

As to G2U A8U, the self-cleavage came to 0.134.

On to U37C C48A, for which the self-cleavage was found to be 1.13.

For the variant G2U C13A, the self-cleavage was 0.

As to C4A G10U, the self-cleavage turned out to be 0.0733.

As for C13A U65A, the self-cleavage was determined as 0.348.

U46G A77G: the self-cleavage stood at 0.415.

In the case of U60G A77C, the self-cleavage is 0.227.

For the variant C13A G73U, the self-cleavage was found to be 0.0615.

G31C G68C: the self-cleavage was determined as 0.138.

For the variant U37A G80A, the self-cleavage is 0.145.

As to G10A C21A, the self-cleavage came to 0.

As for A16G G50C, the self-cleavage is 0.95.

With C19U C36G, the self-cleavage was determined as 0.0723.

With C19A C30G, the self-cleavage was determined as 0.0437.

As for G34C A87C, the self-cleavage is 0.224.

Take C63G G67U: the self-cleavage came out at 0.293.

Turning to G73A G80A, the self-cleavage was 0.0652.

As for A42C G50U, the self-cleavage is 0.386.

Turning to C32G C41U, the self-cleavage stood at 0.119.

Regarding C44U C61G, the self-cleavage came out at 0.786.

G68A G82C: the self-cleavage amounted to 0.153.

In the case of G52A U65G, the self-cleavage amounted to 0.986.

In the case of U9C C85G, the self-cleavage is 0.731.

On to A8C C62A, for which the self-cleavage amounted to 0.918.

For C33A G68C, the self-cleavage is 0.0449.

On to A77U C86G, for which the self-cleavage was 0.623.

For G25A A56U, the self-cleavage stood at 0.111.

As for G1U C49U, the self-cleavage was 0.391.

As to C58U C61A, the self-cleavage came out at 1.21.

On to C15A A70U, for which the self-cleavage came out at 0.723.

As for C26A A77U, the self-cleavage worked out at 0.597.

Consider G10A G53C, for which the self-cleavage came out at 0.742.

On to A77G A87U, for which the self-cleavage was 0.851.

Regarding G73U C86U, the self-cleavage was 0.448.

As to U69A A78C, the self-cleavage was 0.208.

As to A42C A70C, the self-cleavage is 0.0875.

Take C19U C75A: the self-cleavage amounted to 0.0665.

As for C32A C63A, the self-cleavage was 0.232.

With U27C G68A, the self-cleavage was 0.697.

As to C36A U65C, the self-cleavage is 0.095.

With G29C G38A, the self-cleavage stood at 0.

Consider A45G G55C, for which the self-cleavage turned out to be 1.04.

As for G80A C85U, the self-cleavage worked out at 0.339.

On to A8C C33U, for which the self-cleavage was found to be 0.554.

As for U47C A87G, the self-cleavage amounted to 0.876.

For the variant A51U C86A, the self-cleavage worked out at 0.848.

Regarding G10U C24U, the self-cleavage worked out at 0.427.

Take U12G G50U: the self-cleavage turned out to be 0.87.

Consider C22G C48G, for which the self-cleavage is 0.0489.

On to C21G C32G, for which the self-cleavage came out at 0.19.

As to C26G G68U, the self-cleavage was 0.686.

Take C18G C84A: the self-cleavage is 0.095.

Regarding G40U A43U, the self-cleavage was 0.146.

For A51C C64A, the self-cleavage turned out to be 0.764.

As for G59A G76C, the self-cleavage came to 0.854.

With C41A C62U, the self-cleavage was 0.869.
